Results as given in US20200123264A1 (Regeneron, published 2020).

T1: extracellular domain of human LEPR with an N-terminal myc-myc tag, GPI-anchored on HEK293 cells (human, UniProt P48357 22-839, GPI anchor at the C-terminus ; A GPI anchor is attached at the C end through a carboxypeptidase M derived peptide. The protein is displayed on HEK293 cells.)
T1 construct: also called HEK293/hLEPR-GPI; Mycx2-hLEPR(Ecto)-GPI
T1 sequence: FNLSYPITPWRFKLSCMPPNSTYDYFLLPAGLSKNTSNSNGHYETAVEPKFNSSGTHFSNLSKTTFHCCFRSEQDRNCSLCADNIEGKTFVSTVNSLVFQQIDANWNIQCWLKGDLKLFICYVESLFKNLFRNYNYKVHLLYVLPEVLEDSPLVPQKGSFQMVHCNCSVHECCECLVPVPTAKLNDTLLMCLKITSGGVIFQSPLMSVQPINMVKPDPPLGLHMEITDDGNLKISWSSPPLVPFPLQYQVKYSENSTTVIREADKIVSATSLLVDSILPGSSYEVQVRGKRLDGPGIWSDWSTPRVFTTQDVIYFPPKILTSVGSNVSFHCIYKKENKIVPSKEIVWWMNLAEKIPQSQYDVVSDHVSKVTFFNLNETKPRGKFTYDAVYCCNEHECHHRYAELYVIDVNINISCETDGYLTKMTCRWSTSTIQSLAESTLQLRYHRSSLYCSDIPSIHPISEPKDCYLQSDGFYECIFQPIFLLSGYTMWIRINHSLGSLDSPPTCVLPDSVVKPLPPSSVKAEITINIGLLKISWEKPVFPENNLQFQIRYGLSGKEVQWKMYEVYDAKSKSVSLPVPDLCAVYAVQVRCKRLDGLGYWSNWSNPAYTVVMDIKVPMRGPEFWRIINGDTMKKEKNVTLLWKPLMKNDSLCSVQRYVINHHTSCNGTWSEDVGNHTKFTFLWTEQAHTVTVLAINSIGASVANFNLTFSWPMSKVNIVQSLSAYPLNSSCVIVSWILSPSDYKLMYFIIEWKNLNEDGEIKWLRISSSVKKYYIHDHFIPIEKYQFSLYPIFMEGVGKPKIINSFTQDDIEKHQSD

T2: human LEPR Ig-CRH2-FNIII-MMH (human, UniProt P48357 330-839, limits assumed)
T2 construct: domain: Ig-CRH2-FNIII; Transiently expressed, captured from supernatant on anti-myc beads
T2 sequence (looked up): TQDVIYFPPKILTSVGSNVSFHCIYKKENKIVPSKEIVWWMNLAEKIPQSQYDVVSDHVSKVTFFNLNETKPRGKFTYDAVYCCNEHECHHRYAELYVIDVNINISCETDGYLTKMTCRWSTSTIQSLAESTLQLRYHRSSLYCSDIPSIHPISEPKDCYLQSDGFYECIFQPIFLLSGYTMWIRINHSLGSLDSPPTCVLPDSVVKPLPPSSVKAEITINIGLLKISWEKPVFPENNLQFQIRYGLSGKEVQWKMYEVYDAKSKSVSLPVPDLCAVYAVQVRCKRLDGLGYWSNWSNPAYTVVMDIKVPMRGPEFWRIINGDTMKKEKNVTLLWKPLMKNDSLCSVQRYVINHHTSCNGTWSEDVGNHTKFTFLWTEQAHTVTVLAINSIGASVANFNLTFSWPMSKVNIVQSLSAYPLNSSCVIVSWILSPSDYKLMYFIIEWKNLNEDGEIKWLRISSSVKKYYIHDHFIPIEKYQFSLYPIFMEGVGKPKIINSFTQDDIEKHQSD


Legend:
[1] = biological target: T1, extracellular domain of human LEPR with …; test: FACS, 10 nM Ab, HEK293/hLEPR-GPI cells, 1 µM Leptin
Protocol: (§1) For the FACS analysis, HEK293 parental cells and HEK293/hLEPR-GPI cells were dissociated and plated onto 96-well v-bottom plates at 5×10⁵ cells/well in PBS containing 2% FBS (FACS buffer). […] Cells were subsequently fixed using BD CytoFix™ (Becton Dickinson, #554655), filtered, and analyzed on a HyperCyt Flow Cytometer (Beckman Coulter). Unstained and secondary antibody alone controls were also tested for all cell lines. The results were analyzed using ForeCyt (IntelliCyt) and FlowJo version 10 softwares to determine the geometric means of fluorescence for viable cells. The geometric mean of fluorescence for each sample was then normalized to the geometric mean of unstained cells to obtain relative binding per condition referred to as “binding ratios”, and these binding ratios were recorded in Table 14 for each antibody tested.

[2] = biological target: T3, extracellular domain portion of LEPR protein expressed with a C-terminal human Fc tag (human); test: competition ELISA, 500 nM Ab, 10 nM hLEPR-hFc binding to coated hLeptin
T3 construct: Dimeric construct; also called hLEPR.hFc; hLEPR-hFc
Protocol: These antibody-protein or protein-protein complexes were then incubated for 1.5 hour at room temperature (RT). […] Samples were developed with a TMB solution (BD Biosciences, #555214; substrate A and B mixed at 1:1 ratio as per manufacturer's instructions) to produce a colorimetric reaction and then neutralized with 1M sulfuric acid before measuring absorbance at 450 nm on a Victor X5 plate reader. Data analysis was performed using a sigmoidal dose-response model within Prism™ software (Graph Pad).

[3] = biological target: T2, human LEPR Ig-CRH2-FNIII-MMH; test: Luminex, myc-captured LEPR protein on beads, Ab 5 µg/mL
Protocol: Aliquots of microspheres with immobilized anti-myc monoclonal antibodies, prepared as described above, were added individually to 1 mL of the each of these protein supernatants. The microspheres were gently mixed, incubated for two hours at 25° C., washed twice with 1 mL of DBPS, centrifuged to remove the supernatant and finally resuspended in 1 mL of DPBS buffer. Forty eight μL of anti-myc IgG coupled microspheres from individual reactions with full length human LEPR and with each of the human LEPR domain proteins were withdrawn and mixed together in 3.6 mL of PBS+20 mg/mL BSA+0.05% sodium azide (blocking buffer).
From this mixed pool, 75 μL of microspheres were plated per well on a 96 well filter plate (Millipore, Cat. No: MSBVN1250) and mixed with 25 μL of individual anti-human LEPR monoclonal antibodies (0.5 or 5 μg/mL), incubated for two hours at 25° C. and then washed twice with 200 μL of DPBS with 0.05% Tween 20 (washing buffer). […] After 30 minutes, the samples were washed twice with 200 μL of washing buffer and resuspended in 150 μL of wash buffer. The Median Fluorescence intensity (MFI) of the microspheres was measured in a Luminex Analyzer.

[4] = biological target: T1, extracellular domain of human LEPR with …; test: FACS, 10 nM Ab, HEK293/hLEPR-GPI cells, no added Leptin
Protocol: as §1

Binding Ratio (normalized to unstained) [1] | % blockade [2] | Luminex MFI [3] | Binding Ratio (normalized to unstained) [4] | Binder
3590 fold | -5% | 15100 MFI | 2320 fold | H4H18464P2 (antibody, human IgG4, V domains shown, H4H prefix: human IgG4 Fc) VH: QVQLVQSGPEVKKPGASVKVSCKGSGYTFSWYGISWIRQAPGHGLEWMGWISASSGNTRFAQKVQGRLTMTTDTSTSTAYMELRSLRSDDTAVYYCARTGTRPFDYWGQGTLVTVSS VL: not shown
398 fold | 2% | 11300 MFI | 824 fold | H4H18466P2 (antibody, human IgG4, V domains shown, H4H prefix: human IgG4 Fc) VH: EVQLVESGGGLVQPGGSLRLSCTASGFTFSSYGLHWVRQAPGKGLEYVSSINHNGGSKYYADSVKGRFTISRDNSKNTLFLQMGSLKTEDMAVYYCARDLFLEWLFHGFDIWGQGTMVTVSS VL: not shown
759 fold | 14% | 14900 MFI | 1170 fold | H4H18462P2 (antibody, human IgG4, V domains shown, H4H prefix: human IgG4 Fc) VH: EVQLVESGGDLVQPGRSLRLSCAASGFTFSSFAMSWVRQAPGRGLEWVSSLSDSGDNTYYADSVKGRFTISRDNSKNTLYLQMNNLRAEDTAVYYCAKDLFSGWLFHGFDVWGQGTMVTVSS VL: not shown

Further lines, the binder ahead of its results:

Binder | Binding Ratio (normalized to unstained) [1] | % blockade [2] | Luminex MFI [3] | Binding Ratio (normalized to unstained) [4]
H4H18439P2 (antibody, human IgG4, V domains shown, H4H prefix: human IgG4 Fc) VH: QLQLQESGPGLVKPSETLSLTCIVSGGDITSSSYYWNWIRQPPGKGLEWIGNIYYSGSTNYNPSLKSRVTISIDTSKSQFSLKLRSVTAADTAVYYCARLLRYFDWSKGYLDYWGQGTLVTVSS VL: not shown | 2480 fold | -1% | 43 MFI | 1530 fold
H4H18440P2 (antibody, human IgG4, V domains shown, H4H prefix: human IgG4 Fc) VH: QVQLVESGGGMVKPGGSLRLSCAASGFTFSDYYMSWIRQAPGKGLEWISHISITGSTIYYADSVKGRFTISRDNAKNSLYLEMNRLRDEDTAVYYCTRDEPDIVLVRYGMDVWGQGTTVTVSS VL: not shown | 2560 fold | 3% | 32 MFI | 1640 fold
H4H17322P2 (antibody, human IgG4, V domains shown, H4H prefix: human IgG4 Fc) VH: QLQLQESGPGLVKPSETLSLTCTVSGASISSSRFYGGWIRQPPGKGLEWIGDIYYSGNTYYNPSLQSRVTISVDTSKNQFSLKLSSVTAADTAVYYCARHLMITFGGLIVEGFDIWGQGTMVTVSS VL: not shown |  | 13% | 15100 MFI | 
H4H18437P2 (antibody, human IgG4, V domains shown, H4H prefix: human IgG4 Fc) VH: QVQLVESGGGVVQPGRSLRLSCAASGFTFSSYGIHWVRQAPGKGLEWVAVISYDGNNKYYADSVKGRFTISRDNSKNTLYLQMNSLRAEDTAVYYCAKDLFLEWLFHGMGVWGQGTTVTVSS VL: not shown |  | 9% | 15600 MFI | 
H4H18457P2 (antibody, human IgG4, V domains shown, H4H prefix: human IgG4 Fc) VH: EVQLVESGGSVVRPGESLRLSCAASGFTFDDYGMSWVRQAPGKGLEWVSGISWNGGITVYADSVKGRFTVSRDNAKNSLYLQMNSLRAEDTALYHCARARYGGADYWGQGTLVTVSS VL: not shown | 3110 fold | 4% | 13200 MFI | 3190 fold
